Data as given in patent US20200010836A1, “Regulation of Gene Expression by Aptamer-Mediated Accessibility of Polyadenylation Signals” (MEIRAGTX, UK II Limited, priority 2017, published 2020).
Changes are numbered by the printed parent chain.

System: luciferase expression
Assay: Firefly luciferase assay of HEK 293 cells transfected with riboswitch constructs, treated with guanosine or guanine
Assay type: cell-based
Conditions: for basal level luciferase expression in the absence of guanine (comparison in words): no guanine, compared with control or parent construct; for induction fold of luciferase activity (presence / absence of guanosine): 500 μM guanosine vs DMSO solvent control; for basal luciferase expression reduced by % versus control construct pFLuc / basal level luciferase expression, % of the pFLuc control vector: absence of guanine treatment; for basal luciferase expression reduced by % versus control construct pFLuc: given as 'reduced by'; for fold induction by guanine compared with other constructs: 500 μM guanine; for induction fold of luciferase activity (presence / absence of guanine): 500 μM guanine vs NaOH solvent control
Protocol: Transfection and aptamer ligand treatment: 3.5×10^4 HEK 293 cells were plated in a 96-well flat bottom plate the day before transfection. Plasmid DNA (500 ng) was added to a tube or a 96-well U-bottom plate. Separately, TransIT-293 reagent (Minis; 1.4 μl) was added to 50 μl opti-mem I media (Life Technologies), and allowed to sit for 5 minutes at room temperature (“RT”). Then, 50 μl of this diluted transfection reagent was added to the DNA, mixed, and incubated at RT for 20 min. Finally, 7 μl of this solution was added to a well of cells in a 96-well plate. Four hours after transfection, the media was aspirated, and new media was added with (i) DMSO (0.5%) or 500 μM guanosine; or (ii) NaOH (2 mM) as solvent control or 500 μM guanine. The induction fold was expressed as the quotient of luciferase activity obtained in the presence of aptamer ligand divided by the value obtained in the absence of the aptamer ligand.
Firefly luciferase assay of cultured cells: Twenty-four hours after media change, plates were removed from the incubator, and equilibrated to RT for several minutes on a lab bench, then aspirated. Glo-lysis buffer (Promega, […]) was added, and the plates allowed to remain at RT for at least 5 minutes. Then, the well contents were mixed by 50 μL trituration, and 20 μL of each sample was mixed with 20 μL of bright-glo reagent (Promega) that had been diluted to 10% in glo-lysis buffer. 96 wells were spaced on an opaque white 384-well plate. Following a 5-min incubation at RT, luminescence was measured using Tecan machine with 500 mSec read time. The luciferase activity was expressed as mean relative light unit (RLU)±S.D.

B1: SPA_ATA_Gua: SEQ ID NO: 10; xpt-guanine aptamer linked to stem-loop embedding AATAAA of synthetic polyA sequence (nucleic acid)
DNA: AAGGCCAAGAAGGGCGGAAAGATCGCCGTGTAAGGATCCAAGCTTATCGATACCGTCGACCTCGAGGGCCCAGATCTGCGGCAAAAGGTATAATCGCGTGGATATGGCACGCAAGTTTCTACCGGGCACCGTAAATGTCCGACTACCTTTTATTGGAAACAATAAAAGATCTTTATTTTCATTAGATCTGTGTGTTGGTTTTTTGTGTGTCTAGAAATAATTCTTACT
  basal level luciferase expression in the absence of guanine (comparison in words): did not result in reduced luciferase activity

B2: ATA_Gua_1: luciferase construct, SEQ ID NO: 1; xpt-guanine aptamer linked to 9 bp effector stem-loop (GAAA loop) embedding AATAAA of SV40 early polyA (nucleic acid)
DNA: AAGGCCAAGAAGGGCGGAAAGATCGCCGTGTAAGCCATACCACATTTGTAGAGGTTTTACTTGCTTTAAAAAACCTCCCACACCTCCCCCTGAACCTGAAACATAAAATGAATGCAATTGTTGTTGTTAACTTGTTTATTGCAGCTTATAATGGTTACAAATAAAGCAATAGCATCACAAATTTCTAAAGGTATAATCGCGTGGATATGGCACGCAAGTTTCTACCGGGCACCGTAAATGTCCGACTACCTTTATTTCGAAAGAAATAAAGCATTTTTTTCACTGCATTCTAGTTGTGGTTTGTCCAAACTCATCAATGTATCTTAACGCGT
  induction fold of luciferase activity (presence / absence of guanosine): 6.7 fold
  basal luciferase expression reduced by % versus control construct pFLuc: 45%

B3: Stbl_ATA_Gua_1: SEQ ID NO: 14; ATA_Gua_1 with GAAA loop replaced by more stable TTCG loop (nucleic acid)
DNA: B2 DNA with G259T, A260T, A261C, A262G
  fold induction by guanine compared with other constructs: higher induction fold
  basal level luciferase expression in the absence of guanine (comparison in words): lower luciferase activity

B4: gaat_ATA_Gua_1: SEQ ID NO: 15; ATA_Gua_1 variant containing GAAT loop (nucleic acid)
DNA: B2 DNA with A262T
  fold induction by guanine compared with other constructs: slightly lower fold induction
  basal level luciferase expression in the absence of guanine (comparison in words): higher basal level luciferase

B5: DSE_Gua_4: SEQ ID NO: 8; xpt-guanine aptamer linked to 14 bp stem-loop embedding DSE (nucleic acid)
DNA: AAGGCCAAGAAGGGCGGAAAGATCGCCGTGTAAGCCATACCACATTTGTAGAGGTTTTACTTGCTTTAAAAAACCTCCCACACCTCCCCCTGAACCTGAAACATAAAATGAATGCAATTGTTGTTGTTAACTTGTTTATTGCAGCTTATAATGGTTACAAATAAAGCAATAGCATCACAAATTTCACAAATAAAGCATTTTTTTCACTGCATTCTAGTTGTGGTTTGTCCGAAAGGACAAACCACAACATAATCGCGTGGATATGGCACGCAAGTTTCTACCGGGCACCGTAAATGTCCGACTGTTGTGGAAACTCATCAATGTATCTTAACGCGT
DMSO treated, compared among constructs and with pFLuc-SV40
  luciferase activity in the absence of aptamer ligand guanosine (comparison in words): lowest
  basal level luciferase expression, % of the pFLuc control vector: ~80%

B6: SPA_DSE_Gua: SEQ ID NO: 11; xpt-guanine aptamer linked to 3′ end of stem-loop embedding DSE of synthetic polyA (nucleic acid)
DNA: AAGGCCAAGAAGGGCGGAAAGATCGCCGTGTAAGGATCCAAGCTTATCGATACCGTCGACCTCGAGGGCCCAGATCTGCGGCCGCAATAAAAGATCTTTATTTTCATTAGATCTGTGTGTTGGTTTTTTGTGTGTCGAAAGACACACAATATAATCGCGTGGATATGGCACGCAAGTTTCTACCGGGCACCGTAAATGTCCGACTATTGTGTGGAAATAATTCTTACT
  induction fold of luciferase activity (presence / absence of guanine): 1.9 fold

B7: mtSPA_ATA_Gua: SEQ ID NO: 13; xpt-guanine aptamer with 9 bp stem embedding AATAAA of mtSPA, 2 GC base pairs added (nucleic acid)
DNA: AAGGCCAAGAAGGGCGGAAAGATCGCCGTGTAAGGATCCAAGCTTATCGATACCGTCGACCTCGAGGGCCCAGATCTGCGGAAAAGGTATAATCGCGTGGATATGGCACGCAAGTTTCTACCGGGCACCGTAAATGTCCGACTACCTTTTATTGCGAAAGCAATAAAATATCTTTATTTTCATTACATCTGTGTGTTGGTTTTTTGTGTGTCTAGAAATAATTCTTACT
  induction fold of luciferase activity (presence / absence of guanine): 1.7 fold
  basal level luciferase expression in the absence of guanine (comparison in words): decreased

B8: DSE_Gua_2: SEQ ID NO: 6; xpt-guanine aptamer linked to 10 bp stem-loop embedding DSE (nucleic acid)
DNA: AAGGCCAAGAAGGGCGGAAAGATCGCCGTGTAAGCCATACCACATTTGTAGAGGTTTTACTTGCTTTAAAAAACCTCCCACACCTCCCCCTGAACCTGAAACATAAAATGAATGCAATTGTTGTTGTTAACTTGTTTATTGCAGCTTATAATGGTTACAAATAAAGCAATAGCATCACAAATTTCACAAATAAAGCATTTTTTTCACTGCATTCTAGTTGTGGTTTGTCCGAAAGGACAAACCAATAATCGCGTGGATATGGCACGCAAGTTTCTACCGGGCACCGTAAATGTCCGACTTGGTTTGAAACTCATCAATGTATCTTAACGCGT
  induction fold of luciferase activity (presence / absence of guanosine): 3.7 fold

B9: DSE_Gua_1: SEQ ID NO: 5; xpt-guanine aptamer linked to 3′ end of 9 bp stem-loop embedding DSE of SV40 early polyA (nucleic acid)
DNA: AAGGCCAAGAAGGGCGGAAAGATCGCCGTGTAAGCCATACCACATTTGTAGAGGTTTTACTTGCTTTAAAAAACCTCCCACACCTCCCCCTGAACCTGAAACATAAAATGAATGCAATTGTTGTTGTTAACTTGTTTATTGCAGCTTATAATGGTTACAAATAAAGCAATAGCATCACAAATTTCACAAATAAAGCATTTTTTTCACTGCATTCTAGTTGTGGTTTGTCCGAAAGGACAAACCATAATCGCGTGGATATGGCACGCAAGTTTCTACCGGGCACCGTAAATGTCCGACTGGTTTGTAAACTCATCAATGTATCTTAACGCGT
  basal luciferase expression reduced by % versus control construct pFLuc: 35%

B10: ATA_DSE_Gua: SEQ ID NO: 16; pFLuc construct containing both ATA_Gua_1 and DSE_Gua_1 switches (nucleic acid)
DNA: AAGGCCAAGAAGGGCGGAAAGATCGCCGTGTAAGCCATACCACATTTGTAGAGGTTTTACTTGCTTTAAAAAACCTCCCACACCTCCCCCTGAACCTGAAACATAAAATGAATGCAATTGTTGTTGTTAACTTGTTTATTGCAGCTTATAATGGTTACAAATAAAGCAATAGCATCACAAATTTCTAAAGGTATAATCGCGTGGATATGGCACGCAAGTTTCTACCGGGCACCGTAAATGTCCGACTACCTTTATTTCGAAAGAAATAAAGCATTTTTTTCACTGCATTCTAGTTGTGGTTTGTCCGAAAGGACAAACCATAATCGCGTGGATATGGCACGCAAGTTTCTACCGGGCACCGTAAATGTCCGACTGGTTTGTAAACTCATCAATGTATCTTAACGCGT
  induction fold of luciferase activity (presence / absence of guanine): approximately 2.1 fold
  basal level luciferase expression, % of the pFLuc control vector: 20%
  basal level luciferase expression in the absence of guanine (comparison in words): further decreases the basal level
